Substitutions are numbered along the chain they refer to. Names and notes keep the numbering of the source. Where no end group is shown, it is not given here.
Experiments:
[1] = target: T1, recombinant human Tau monomer, 2N4R isoform (amino acids 2-441) (human, UniProt P10636-8 2-441); test: SPR, hIgG captured, Tau monomer analyte; mean of four
T1 construct: range 2-441; N-terminal His-tag removed with TEV protease; also called monomeric Tau
Procedure: Affinity was assessed at 25° C. using a Biacore T200 instrument, the GE Biacore human IgG capture kit and a CM5 Series S chip. The hIgG were diluted to 2 μg/ml in 10 mM HEPES pH7.4, 150 mM NaCl, 0.05% Tween 20 (running buffer, HBSP) and captured at a flow rate of 10 μl/min for 22 seconds. […] Between cycles the surface was regenerated using a 30 second injection of 3M Magnesium Chloride at 10 μl/min. A 1:1 binding model was fitted to the data and affinities for hu37D3-H9.v5 and hu37D3-H9.v5.3 (also referred to herein as hu37D3-H9.v5 N28D) calculated using kinetic analysis. Parameters used for the 1:1 fitting included the Instrument default of local fitting for the “RI” parameter.

MAPT(10-24) [2] = target: T2, MAPT(10-24) (human, also: biotinylated, site not given here); test: ELISA, biotinylated peptide on Neutravidin plate, IgG titrated, A450 nm
T2 construct: also called Tau fragment 10-24
T2 peptide: VMEDHAGTYGLGDRK
Procedure: (§1) Following a comparison of 37D3-H9 binding to biotinylated Tau monomer and biotinylated peptide (MAPT_10-24), binding of 37D3-H9 to additional biotinylated peptides was also assessed. Nunc maxisorp 96-well microplates were coated at 4° C. for >12 hours with Neutravidin diluted to 2 μg/ml in 50 mM Sodium Carbonate Buffer, pH 9.6. All subsequent incubations were performed at room temperature. After coating, plates were blocked with Superblock™ (PBS) Blocking Buffer (Thermo Fisher Scientific) for two hours then washed thoroughly with PBS, 0.05% Polysorbate 20. Wells were then exposed to biotinylated Tau peptides (Table 20) or Avi-tag biotinylated Tau monomer at 1 μg/ml for one hour and washed as previously. Peptides were synthesized using standard solid-phase Fmoc chemistry (see, e.g., Fmoc solid phase peptide synthesis: A practical approach; Chan, W. C., White, P. D., Eds.; Oxford University Press: New York, 2000). Antibodies 37D3-H9 mIgG2a and hu37D3-H9.v5 hIgG1, serially diluted from 500 nM to 50 pM in 90% Superblock™ (PBS) Blocking Buffer, were allowed to bind biotinylated-Tau coated wells for 90 minutes. Wells were washed as previously and bound antibody detected with peroxidase-conjugated secondary antibody (Invitrogen/Life Technologies) diluted 1/1000 in Superblock™ Blocking Buffer (Rabbit anti-Mouse IgG or Goat Anti-Human IgG (H+L) respectively). After twenty minutes wells were washed as previously and signal developed with TMB Microwell 2-Component Substrate (KPL). Reactions were stopped by addition of 1M Phosphoric Acid and absorbance at 450 nm was measured with a SpectraMax M2 platereader.

MAPT(2-24) = target: T3, MAPT(2-24) (human, biotinylated); test: as above
T3 construct: also called Tau fragment 2-24
T3 peptide: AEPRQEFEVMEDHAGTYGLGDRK
Procedure: as §1

MAPT(2-34) = target: T4, MAPT(2-34) (human, biotinylated); test: as above
T4 construct: also called Tau fragment 2-34
T4 peptide: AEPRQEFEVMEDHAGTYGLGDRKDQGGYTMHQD
Procedure: as §1

[3] = target: T1, recombinant human Tau monomer, 2N4R …; test: SPR, captured IgG, Tau monomer analyte, 1:1 model; fit-quality column: Yes
In short: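 SPR read-out: Rmax divided by captured-IgG Ligand Level gives Normalized Rmax; post-stress (40° C., 2 weeks) over pre-stress (~4° C.) value is the Stability Index. Tau analyte at 0, 26.5, 265 nM, 180 s association, 300 s dissociation, multi-cycle kinetics, 1:1 model.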
Target sequence in this assay (P10636 other isoform, or with tags, fused parts or gaps limits assumed): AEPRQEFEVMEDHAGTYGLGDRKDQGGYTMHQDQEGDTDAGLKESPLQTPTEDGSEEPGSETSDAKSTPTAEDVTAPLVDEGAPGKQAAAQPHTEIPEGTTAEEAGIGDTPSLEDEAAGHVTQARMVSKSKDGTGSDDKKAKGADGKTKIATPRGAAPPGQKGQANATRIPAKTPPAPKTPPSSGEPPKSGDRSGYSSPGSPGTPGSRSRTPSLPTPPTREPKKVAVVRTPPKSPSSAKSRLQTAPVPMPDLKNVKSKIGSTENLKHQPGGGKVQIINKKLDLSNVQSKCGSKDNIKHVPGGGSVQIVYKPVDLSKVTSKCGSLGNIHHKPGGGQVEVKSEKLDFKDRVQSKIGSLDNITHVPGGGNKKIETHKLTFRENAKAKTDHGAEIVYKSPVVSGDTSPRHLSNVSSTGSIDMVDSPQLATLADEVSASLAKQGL

[4] = target: T1, recombinant human Tau monomer, 2N4R …; test: SPR, hIgG captured, Tau monomer analyte, 1:1 fit
Procedure: Affinity of selected antibodies was assessed at 25° C. using a Biacore T200 instrument, the GE Biacore human IgG capture kit and a CM5 Series S chip. The hIgG were diluted to 0.25 μg/ml in 10 mM HEPES pH7.4, 150 mM NaCl, 0.05% Tween 20 (running buffer, HBSP) and captured at a flow rate of 10 μl/min for 150 seconds. Kinetic data was collected for Human Tau monomer injected at concentrations of 0, 0.4, 1.2, 3.7, 11, 11, 33 and 100 nM in HBSP, using a flow rate of 30 μl/min, a 300 second association phase and a 600 second dissociation phase. Between cycles the surface was regenerated using two sequential 30 second injections of 3M MgCl at 10 μl/min. Data was fit to a 1:1 binding model (Table 15).

[5] = target: T1, recombinant human Tau monomer, 2N4R …; test: SPR single-cycle, Tau monomer amine-coupled, Fab analyte; Fab, not IgG; Tau monomer on the chip
Procedure: (§2) Human monomer Tau protein was covalently coupled to a Biacore Series S CM5 chip using the Biacore Amine Coupling Kit (GE Life Sciences), resulting in immobilization to a level of approximately 128 RU. Direct binding of 37D3-H9 in both Fab and IgG formats was monitored using the single-cycle kinetics experimental format with five association periods of 300s each and antibody concentrations of 1, 2, 4, 8 and 16 nM (IgG) or 5, 10, 20, 40 and 80 nM (Fab). Dissociation was monitored for 7200 seconds (Fab) or for 14400 seconds (IgG). A value for the dissociation rate was calculated by fitting a 1:1 binding model to the data.

[6] = target: T1, recombinant human Tau monomer, 2N4R …; test: SPR, hIgG captured, Tau monomer analyte; unstressed sample
Procedure: To assess the impact of N²⁸ deamidation on the affinity for human Tau, it was desirable to obtain two samples with widely separated N²⁸ deamidation status. Hu37D3-H9.v5 hIgG4.S228P was incubated at 40° C. for two weeks at a concentration of 1 mg/ml in Phosphate Buffered Saline, pH 7.4. Deamidation of the N²⁸G2⁹ motif was measured using LC-MS/MS. […] The stressed and unstressed antibodies were analyzed for Tau binding by surface plasmon resonance (Biacore) using the GE Biacore human IgG capture kit and a Series S CM5 chip. The hIgG were diluted to 2 μg/ml in 10 mM HEPES pH7.4, 150 mM NaCl, 0.05% Tween 20 (running buffer, HBSP) and captured at a flow rate of 10 μl/min for 15 seconds (t0 sample) or 17 seconds (t2 sample). […] Between cycles the surface was regenerated using a 30 second injection of 3M Magnesium Chloride at 10 μl/min. A 1:1 binding model was fitted to the data using instrument defaults, including local fitting of the “RI” parameter.

[7] = target: T1, recombinant human Tau monomer, 2N4R …; test: SPR, hIgG captured, Tau monomer analyte; stressed sample
[8] = target: T1, recombinant human Tau monomer, 2N4R …; test: SPR, hIgG captured, Tau monomer analyte; control sample
[9] = target: T1, recombinant human Tau monomer, 2N4R …; test: SPR single-cycle, Tau monomer amine-coupled, IgG analyte; IgG (bivalent, avidity); Tau monomer on the chip
Procedure: as §2

[10] = target: T5, full-length human Tau (flTau) (human, UniProt P10636-8 1-441); test: SPR, hybridoma Ab on anti-IgG chip, flTau analyte
T5 construct: range 1-441; bought (SignalChem); also called human Tau-441
In short: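 Unpurified antibodies from serum-free hybridoma supernatants were captured on an anti-IgG SPR chip (Biacore T-100), and flTau was flowed as analyte. KD was obtained from kinetic analysis with a 1:1 Langmuir fit.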

Tau fragment 19-33 = target: T6, Tau fragment 19-33 (human, UniProt P10636-8 19-33, not fully specified); test: ELISA on Tau 15-mer peptides, O.D.; conditions of this panel not given
T6 construct: range 19-33
T6 peptide (looked up): GLGDRKDQGGYTMHQ

Tau fragment 28-42 = target: T7, Tau fragment 28-42 (human, UniProt P10636-8 28-42, not fully specified); test: as above
T7 construct: range 28-42
T7 peptide (looked up): GYTMHQDQEGDTDAG

MAPT(10-24) [11] = target: T2, MAPT(10-24); test: as above
Tau fragment 37-51 = target: T8, Tau fragment 37-51 (human, UniProt P10636-8 37-51); test: as above
T8 construct: range 37-51
T8 peptide (looked up): GDTDAGLKESPLQTP

Tau fragment 1-15 = target: T9, Tau fragment 1-15 (human, UniProt P10636-8 1-15); test: as above
T9 construct: range 1-15
T9 peptide (looked up): MAEPRQEFEVMEDHA

[12] = target: T1, recombinant human Tau monomer, 2N4R …; test: SPR single-cycle, Tau monomer amine-coupled
Procedure: as §2

Tau fragment 2-21 L20A = target: T10, Tau fragment 2-21 L20A (human, UniProt P10636-8 2-21); test: alanine scanning of Tau fragment 2-21
T10 construct: range 2-21
T10 peptide (looked up): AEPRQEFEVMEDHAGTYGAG

Tau fragment 2-21 Y18A = target: T11, Tau fragment 2-21 Y18A (human, UniProt P10636-8 2-21); test: alanine scanning of Tau fragment 2-21
T11 construct: range 2-21
T11 peptide (looked up): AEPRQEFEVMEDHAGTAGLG

[13] = target: T1, recombinant human Tau monomer, 2N4R …; test: SPR, mIgG2a captured, Tau monomer analyte, 1:1 fit
In short: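 Antibodies in mIgG2a format captured on anti-mouse IgG surface at 1 μg/ml (30 or 45 s) or 0.1 μg/ml (70 or 150 s), 10 μl/min, in HBSP (10 mM HEPES pH7.4, 150 mM NaCl, 0.05% Tween 20). Tau monomer flowed as analyte; association 180-480 s, dissociation 300-600 s, 1:1 fit.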

Tau fragment 9-23 = target: T12, Tau fragment 9-23 (human, UniProt P10636-8 9-23); test: 15mer offset peptides
T12 construct: range 9-23
T12 peptide (looked up): EVMEDHAGTYGLGDR

Tau fragment 7-21 = target: T13, Tau fragment 7-21 (human, UniProt P10636-8 7-21); test: 15mer offset peptides
T13 construct: range 7-21
T13 peptide (looked up): EFEVMEDHAGTYGLG

Tau fragment 11-25 = target: T14, Tau fragment 11-25 (human, UniProt P10636-8 11-25, not fully specified); test: 15mer offset peptides
T14 construct: range 11-25
T14 peptide (looked up): MEDHAGTYGLGDRKD

Tau fragment 8-22 = target: T15, Tau fragment 8-22 (human, UniProt P10636-8 8-22); test: 15mer offset peptides
T15 construct: range 8-22
T15 peptide (looked up): FEVMEDHAGTYGLGD

T5 sequence (P10636 other isoform, or with tags, fused parts or gaps limits assumed): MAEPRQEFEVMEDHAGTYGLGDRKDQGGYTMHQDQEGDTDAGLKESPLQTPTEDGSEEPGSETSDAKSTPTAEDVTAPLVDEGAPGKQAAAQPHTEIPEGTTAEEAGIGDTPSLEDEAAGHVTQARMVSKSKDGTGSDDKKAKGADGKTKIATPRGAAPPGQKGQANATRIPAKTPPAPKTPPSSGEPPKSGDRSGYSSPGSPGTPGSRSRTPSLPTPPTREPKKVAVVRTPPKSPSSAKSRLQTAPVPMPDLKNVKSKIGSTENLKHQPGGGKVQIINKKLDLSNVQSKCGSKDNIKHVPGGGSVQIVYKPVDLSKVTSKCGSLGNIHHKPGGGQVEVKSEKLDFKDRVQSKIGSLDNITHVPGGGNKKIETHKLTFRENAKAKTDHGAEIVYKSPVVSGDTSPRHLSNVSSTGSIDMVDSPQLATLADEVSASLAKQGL

B1: hu37D3-H9.v5 hIgG1 (antibody, V domains shown)
VH: EVQLVESGGGLVQPGGSLRLSCAASGLIFRSYGMSWVRQAPGKGLEWVATINSGGTYTYYPDSVKGRFTISRDNSKNTLYLQMNSLRAEDTAVYYCANSYSGAMDYWGQGTLVTVSS
VL: EDVLTQTPLSLPVTPGQPASISCRSSQSIVHSNGNTYFEWYLQKPGQSPQLLIYKVSNRFSGVPDRFSGSGSGTDFTLKISRVEAEDVGVYYCFQGSLVPWTFGQGTKVEIK
notes: human IgG1, kappa
Kd [1]: 1.5 nM
binding result (MAPT(10-24) [2]): binds
binding result (MAPT(2-24)): binds
binding result (MAPT(2-34)): binds
Kd [3]: 1 nM
Kd [4]: 1 nM
koff [4]: 0.0008 s⁻¹
kon [4]: 750000 M⁻¹ s⁻¹

B2: 37D3-H9 Fab (Fab, V domains shown)
VH: EVQLVESGGDLAKPGGSLKLSCTASGLIFRSYGMSWVRQTPDKRLEWVATINSGGTYTYYPDSVKGRFTISRDNAKNTLYLQMSSLKSEDTAMYYCANSYSGAMDYWGQGTSVTVSS
VL: B1 VL with E1D, V3L, T14S, P15L, Q17D, Q50K, V88L, Q105G, V109L
notes: Fab format
koff [5]: 0.0005 s⁻¹

B3: hu37D3-H9.v5 hIgG4.S228P (antibody, V domains shown)
VH: B1 VH
VL: B1 VL
notes: human IgG4 S228P, kappa; the t = 2 weeks sample is partly deamidated at light chain N28
Kd [6]: 0.7 nM
Kd [7]: 1.5 nM
Kd [8]: 1.5 nM
Kd [4]: 1.3 nM
koff [4]: 0.0009 s⁻¹
kon [4]: 710000 M⁻¹ s⁻¹

B4: 37D3-H9 (antibody, mouse IgG2a, V domains shown)
VH: B2 VH
VL: B1 VL with E1D, V3L, T14S, P15L, Q17D, Q50K, V88L, Q105G, V109L
notes: also called 37D3-H9 mIgG2a; 37D3-H9 IgG
koff [9]: 1.1e-05 s⁻¹
Kd [10]: 1 nM
binding result (Tau fragment 19-33): no binding (tested: not given)
binding result (Tau fragment 28-42): no binding (tested: not given)
binding result (MAPT(10-24) [11]): binds
binding result (Tau fragment 37-51): no binding (tested: not given)
binding result (Tau fragment 1-15): no binding (tested: not given)
fold difference in dissociation rate, Fab against IgG [12]: 45 fold
binding result (MAPT(2-24)): binds
binding result (MAPT(2-34)): binds
binding result (Tau fragment 2-21 L20A): no binding
binding result (Tau fragment 2-21 Y18A): no binding
Kd [13]: 1.6 nM
koff [13]: 0.0001 s⁻¹
kon [13]: 100000 M⁻¹ s⁻¹
binding result (Tau fragment 9-23): binds
binding result (Tau fragment 7-21): binds
binding result (Tau fragment 11-25): binds
binding result (Tau fragment 8-22): binds

Reference: patent US20190367592A1 (AC IMMUNE, published 2019)
